Data as given in IntAct's records for PubMed 25910212.

B1: X-linked retinitis pigmentosa GTPase regulator (Homo sapiens), Q92834 (parent)
chain: MREPEELMPDSGAVFTFGKSKFAENNPGKFWFKNDVPVHLSCGDEHSAVVTGNNKLYMFGSNNWGQLGLGSKSAISKPTCVKALKPEKVKLAACGRNHTLVSTEGGNVYATGGNNEGQLGLGDTEERNTFHVISFFTSEHKIKQLSAGSNTSAALTEDGRLFMWGDNSEGQIGLKNVSNVCVPQQVTIGKPVSWISCGYYHSAFVTTDGELYVFGEPENGKLGLPNQLLGNHRTPQLVSEIPEKVIQVACGGEHTVVLTENAVYTFGLGQFGQLGLGTFLFETSEPKVIENIRDQTISYISCGENHTALITDIGLMYTFGDGRHGKLGLGLENFTNHFIPTLCSNFLRFIVKLVACGGCHMVVFAAPHRGVAKEIEFDEINDTCLSVATFLPYSSLTSGNVLQRTLSARMRRRERERSPDSFSMRRTLPPIEGTLGLSACFLPNSVFPRCSERNLQESVLSEQDLMQPEEPDYLLDEMTKEAEIDNSSTVESLGETTDILNMTHIMSLNSNEKSLKLSPVQKQKKQQTIGELTQDTALTENDDSDEYEEMSEMKEGKACKQHVSQGIFMTQPATTIEAFSDEEVGNDTGQVGPQADTDGEGLQKEVYRHENNNGVDQLDAKEIEKESDGGHSQKESEAEEIDSEKETKLAEIAGMKDLREREKSTKKMSPFFGNLPDRGMNTESEENKDFVKKRESCKQDVIFDSERESVEKPDSYMEGASESQQGIADGFQQPEAIEFSSGEKEDDEVETDQNIRYGRKLIEQGNEKETKPIISKSMAKYDFKCDRLSEIPEEKEGAEDSKGNGIEEQEVEANEENVKVHGGRKEKTEILSDDLTDKAEDHEFSKTEELKLEDVDEEINAENVESKKKTVGDDESVPTGYHSKTEGAERTNDDSSAETIEKKEKANLEERAICEYNENPKGYMLDDADSSSLEILENSETTPSKDMKKTKKIFLFKRVPSINQKIVKNNNEPLPEIKSIGDQIILKSDNKDADQNHMSQNHQNIPPTNTERRSKSCTIL
partner: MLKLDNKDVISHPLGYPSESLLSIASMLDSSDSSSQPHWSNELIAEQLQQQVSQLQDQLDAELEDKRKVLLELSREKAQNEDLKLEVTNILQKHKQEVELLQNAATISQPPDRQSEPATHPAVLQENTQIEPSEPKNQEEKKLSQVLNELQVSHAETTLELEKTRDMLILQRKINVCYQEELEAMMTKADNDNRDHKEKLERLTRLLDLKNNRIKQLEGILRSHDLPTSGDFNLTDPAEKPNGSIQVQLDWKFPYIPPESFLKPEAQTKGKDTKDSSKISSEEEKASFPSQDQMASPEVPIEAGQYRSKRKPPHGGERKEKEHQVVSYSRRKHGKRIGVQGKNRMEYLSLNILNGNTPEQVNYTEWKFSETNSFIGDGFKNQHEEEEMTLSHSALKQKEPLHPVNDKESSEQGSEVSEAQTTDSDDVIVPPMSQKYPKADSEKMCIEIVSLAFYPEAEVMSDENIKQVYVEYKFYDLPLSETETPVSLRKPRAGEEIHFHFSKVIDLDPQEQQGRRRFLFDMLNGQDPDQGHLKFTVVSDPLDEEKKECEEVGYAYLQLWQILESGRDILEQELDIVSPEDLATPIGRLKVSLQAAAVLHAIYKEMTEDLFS
B2: Tribbles homolog 3 (Homo sapiens), Q96RU7 (parent)
chain: MRATPLAAPAGSLSRKKRLELDDNLDTERPVQKRARSGPQPRLPPCLLPLSPPTAPDRATAVATASRLGPYVLLEPEEGGRAYQALHCPTGTEYTCKVYPVQEALAVLEPYARLPPHKHVARPTEVLAGTQLLYAFFTRTHGDMHSLVRSRHRIPEPEAAVLFRQMATALAHCHQHGLVLRDLKLCRFVFADRERKKLVLENLEDSCVLTGPDDSLWDKHACPAYVGPEILSSRASYSGKAADVWSLGVALFTMLAGHYPFQDSEPVLLFGKIRRGAYALPAGLSAPARCLVRCLLRREPAERLTATGILLHPWLRQDPMPLAPTRSHLWEAAQVVPDGLGLDEAREEEGDREVVLYG
partner: B1 partner
B3: U4/U6 small nuclear ribonucleoprotein Prp31 (Homo sapiens), Q8WWY3 (parent)
chain: MSLADELLADLEEAAEEEEGGSYGEEEEEPAIEDVQEETQLDLSGDSVKTIAKLWDSKMFAEIMMKIEEYISKQAKASEVMGPVEAAPEYRVIVDANNLTVEIENELNIIHKFIRDKYSKRFPELESLVPNALDYIRTVKELGNSLDKCKNNENLQQILTNATIMVVSVTASTTQGQQLSEEELERLEEACDMALELNASKHRIYEYVESRMSFIAPNLSIIIGASTAAKIMGVAGGLTNLSKMPACNIMLLGAQRKTLSGFSSTSVLPHTGYIYHSDIVQSLPPDLRRKAARLVAAKCTLAARVDSFHESTEGKVGYELKDEIERKFDKWQEPPPVKQVKPLPAPLDGQRKKRGGRRYRKMKERLGLTEIRKQANRMSFGEIEEDAYQEDLGFSLGHLGKSGSGRVRQTQVNEATKARISKTLQRTLQKQSVVYGGKSTIRDRSSGTASSVAFTPLQGLEIVNPQAAEKKVAEANQKYFSSMAEFLKVKGEKSGLMST
partner: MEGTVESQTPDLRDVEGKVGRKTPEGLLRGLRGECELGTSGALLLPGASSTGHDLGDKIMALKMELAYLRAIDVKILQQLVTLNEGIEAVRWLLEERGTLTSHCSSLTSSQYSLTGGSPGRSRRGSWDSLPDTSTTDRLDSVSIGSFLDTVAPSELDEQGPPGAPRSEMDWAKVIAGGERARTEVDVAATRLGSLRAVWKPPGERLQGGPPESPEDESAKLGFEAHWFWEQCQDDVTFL
B4: Galactose-1-phosphate uridylyltransferase (Homo sapiens), P07902 (parent)
chain: MSRSGTDPQQRQQASEADAAAATFRANDHQHIRYNPLQDEWVLVSAHRMKRPWQGQVEPQLLKTVPRHDPLNPLCPGAIRANGEVNPQYDSTFLFDNDFPALQPDAPSPGPSDHPLFQAKSARGVCKVMCFHPWSDVTLPLMSVPEIRAVVDAWASVTEELGAQYPWVQIFENKGAMMGCSNPHPHCQVWASSFLPDIAQREERSQQAYKSQHGEPLLMEYSRQELLRKERLVLTSEHWLVLVPFWATWPYQTLLLPRRHVRRLPELTPAERDDLASIMKKLLTKYDNLFETSFPYSMGWHGAPTGSEAGANWNHWQLHAHYYPPLLRSATVRKFMVGYEMLAQAQRDLTPEQAAERLRALPEVHYHLGQKDRETATIA

Variants of: B1
Conditions: with RPGRIP1, Q96KN7-4
For Q184H, the “effect of a mutation on the interaction” value was “with no effect”. T255I was tested, and the “effect of a mutation on the interaction” value was “disrupting interaction strength”. R425K was tested, and the “effect of a mutation on the interaction” value was “with no effect”. G436D was tested, and the “effect of a mutation on the interaction” value was “with no effect”.

Variants of: B2
Conditions: with RPGRIP1, Q96KN7-4
Q84R was tested, and the “effect of a mutation on the interaction” value was “with no effect”.

Variants of: B3
Conditions: with lura1_human LURAP1, Q96LR2
For L107V, the “effect of a mutation on the interaction” value was “with no effect”.

Variants of: B4
Conditions: with TNK2, Q07912-2
Sequence of TNK2, Q07912-2 (Q07912 other isoform, or with tags, fused parts or gaps): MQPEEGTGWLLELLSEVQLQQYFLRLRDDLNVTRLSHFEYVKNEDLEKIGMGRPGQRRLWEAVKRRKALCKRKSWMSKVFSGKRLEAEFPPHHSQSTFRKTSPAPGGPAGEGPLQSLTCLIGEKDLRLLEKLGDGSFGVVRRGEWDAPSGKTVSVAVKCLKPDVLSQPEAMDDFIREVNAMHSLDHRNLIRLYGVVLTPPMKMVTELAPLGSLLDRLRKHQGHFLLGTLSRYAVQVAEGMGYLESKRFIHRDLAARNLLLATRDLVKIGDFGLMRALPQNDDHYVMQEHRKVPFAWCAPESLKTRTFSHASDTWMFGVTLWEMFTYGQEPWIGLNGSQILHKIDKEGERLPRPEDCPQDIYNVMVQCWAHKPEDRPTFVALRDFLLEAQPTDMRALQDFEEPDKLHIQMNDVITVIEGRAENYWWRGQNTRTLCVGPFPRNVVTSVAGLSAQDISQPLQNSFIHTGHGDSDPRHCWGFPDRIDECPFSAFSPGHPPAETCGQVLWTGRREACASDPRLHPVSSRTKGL
With Y34N the “effect of a mutation on the interaction” value was “with no effect”. G175D was tested, and the “effect of a mutation on the interaction” value was “with no effect”. For R272H, the “effect of a mutation on the interaction” value was “with no effect”. H319Q was tested, and the “effect of a mutation on the interaction” value was “with no effect”.
